Assay [1] concerns the target T1, CAPRIN-1 protein expressed on the cell membrane surface of human cancer cell lines (human, UniProt Q14444 2-709).
T1 sequence (looked up): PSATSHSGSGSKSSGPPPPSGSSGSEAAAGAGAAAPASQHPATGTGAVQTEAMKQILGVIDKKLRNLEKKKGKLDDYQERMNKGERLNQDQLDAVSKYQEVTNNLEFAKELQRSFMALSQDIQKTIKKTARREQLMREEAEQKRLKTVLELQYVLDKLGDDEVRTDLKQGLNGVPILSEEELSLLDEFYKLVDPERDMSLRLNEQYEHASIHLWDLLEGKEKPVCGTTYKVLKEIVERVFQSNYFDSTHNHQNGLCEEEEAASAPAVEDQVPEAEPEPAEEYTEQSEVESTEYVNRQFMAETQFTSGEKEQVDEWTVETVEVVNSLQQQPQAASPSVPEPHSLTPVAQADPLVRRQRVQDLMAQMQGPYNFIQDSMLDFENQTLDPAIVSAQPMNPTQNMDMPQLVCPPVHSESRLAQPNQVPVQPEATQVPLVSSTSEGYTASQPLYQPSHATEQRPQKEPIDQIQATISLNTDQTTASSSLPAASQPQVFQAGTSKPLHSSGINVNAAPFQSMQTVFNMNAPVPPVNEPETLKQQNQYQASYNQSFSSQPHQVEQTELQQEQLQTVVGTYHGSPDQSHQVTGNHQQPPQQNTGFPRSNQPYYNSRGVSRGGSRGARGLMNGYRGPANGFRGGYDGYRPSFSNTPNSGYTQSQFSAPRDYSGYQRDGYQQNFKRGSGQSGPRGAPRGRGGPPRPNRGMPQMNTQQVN
The assay is described as follows: cell-based or functional assay.

Assay [2] has as its target T2, polypeptide of SEQ ID NO: 266 (human).
T2 peptide: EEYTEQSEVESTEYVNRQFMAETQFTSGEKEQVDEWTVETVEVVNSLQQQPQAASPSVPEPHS
The assay is described as follows: ELISA on immobilised synthetic CAPRIN-1 peptides. The method, then:
(§1) Then, the solution in each well was discarded, and each well was washed six times with PBST.
(§2) A TMB substrate solution (manufactured by Thermo Fisher Scientific Inc.) was added thereto at a concentration of 100 μl/well and left standing for 15 to 30 minutes to cause color reaction. After the color development, the reaction was terminated by the addition of 1 N sulfuric acid at a concentration of 100 μl/well. The absorbance was measured at 450 nm and 595 nm using an absorption spectrometer. As a result, a polypeptide of SEQ ID NO: 266 was identified as a partial CAPRIN-1 sequence recognized by all of the anti-CAPRIN-1 antibodies human-chicken chimeric monoclonal antibody #1 and anti-CAPRIN-1 monoclonal antibodies #1 to #5. In the polypeptide of SEQ ID NO: 266, a peptide of SEQ ID NO: 267 was identified as a partial sequence recognized by the human-chicken chimeric monoclonal antibody #1 and the mouse monoclonal antibodies #3 and #4. In the polypeptide of SEQ ID NO: 266, a peptide of SEQ ID NO: 268 was identified as a partial sequence recognized by the mouse monoclonal antibodies #1, #2, and #5. […] Also, a polypeptide comprising the amino acid sequence of SEQ ID NO: 270 was identified as a partial CAPRIN-1 sequence recognized by all of the anti-CAPRIN-1 monoclonal antibodies #6, #7, and #8. […] In addition, a polypeptide comprising the amino acid sequence of SEQ ID NO: 272 was identified as a partial CAPRIN-1 sequence recognized by all of the anti-CAPRIN-1 monoclonal antibodies #9, #10, and #11. […] In addition, a polypeptide comprising the amino acid sequence of SEQ ID NO: 269 was identified as a partial CAPRIN-1 sequence recognized by the human-chicken chimeric monoclonal antibody #3.

Assay [3] deals with T3, peptide of SEQ ID NO: 268 (human).
T3 peptide: FTSGEKEQVDEW
The assay can be described thus: ELISA on immobilised synthetic CAPRIN-1 peptides. The method, then:
as §1, §2

Assay [4] deals with T1, CAPRIN-1 protein expressed on the cell …. The assay is described as follows: flow cytometry on Capan-2, MIAPaCa-2, PANC-1 and BxPC-3 cells, vs isotype control. The method, then:
Next, four pancreatic cancer cell lines (Capan-2, MIAPaCa-2, PANC-1, and BxPC-3) confirmed to have CAPRIN-1 gene expression were examined for their expression of CAPRIN-1 protein on the cell surface. 10⁶ cells of each cell line were centrifuged in each 1.5-ml microcentrifuge tube. The cancer cell surface-reactive anti-CAPRIN-1 mouse monoclonal antibodies #1 to #22 prepared in Example 4 and the culture supernatant (100 μl) containing the anti-CAPRIN-1 mouse-chicken chimeric antibody #1, #2, or #3 prepared in the preceding paragraph (2) were separately added to the tubes and left standing for 1 hour on ice. After washing with PBS, the cells were suspended in FITC-labeled goat anti-mouse IgG antibodies (manufactured by Invitrogen Corp.) diluted 500-fold with PBS containing 0.1% FBS and left standing for 1 hour on ice. After washing with PBS, the fluorescence intensity was measured using FACSCalibur (Becton, Dickinson and Company). On the other hand, the same operation as above was performed using isotype control antibodies, instead of the anti-CAPRIN-1 mouse monoclonal antibodies #1 to #22 and the culture supernatant containing the mouse-chicken chimeric antibody #1, #2, or #3, to prepare a control. As a result, all the cells supplemented with any of the monoclonal antibodies #1 to #22 and the mouse-chicken chimeric antibodies #1, #2, and #3 had fluorescence intensity at least 20% stronger than that of the control. […] The above rate of enhancement in fluorescence intensity was indicated by the rate of increase in mean fluorescence intensity (MFI) in each cell line and calculated according to the following expression: […]

The target in assay [5] is T4, polypeptide comprising the amino acid sequence of SEQ ID NO: 269 (human).
T4 peptide: PPVNEPETLKQQNQYQAS
The assay is described as follows: ELISA on immobilised synthetic CAPRIN-1 peptides. The method, then:
as §1, §2

Assay [6] concerns the target T5, peptide of SEQ ID NO: 267 (human).
T5 peptide: QQPQAASPSVPE
The assay can be described thus: ELISA on immobilised synthetic CAPRIN-1 peptides. The method, then:
as §1, §2

B1: mouse monoclonal antibody #5 (antibody, V domains shown)
VH: DAELVKPGASVKISCKASGYTFTDHSIHWVQQKPEQGLEWIGYISPGNGNIKYNEKFKGKATLTADKSSSTAYMQLNSLTSEDSAVYFCKRSLGRGGPYYFDYWGQGTTVTVSS
VL: DIVLTQAAPSLPVTPGESVSISCRSSKSLLHSNGNTYLYWFLQRPGQSPQLLIYRMSNLASGVPDRFSGSGSGTAFTLRISRVEAEDVGVYYCMQHREYPVTFGSGPN
notes: Mouse hybridoma antibody; also called anti-CAPRIN-1 mouse monoclonal antibody #5
B1: the “cytotoxic activity (ADCC) against MIAPaCa-2 and Capan-2” value (from here on “cytotoxic activity (ADCC)”) in assay [1] was ≥ 10%. For the same molecule, the binding result in assay [2] and in assay [3] was “binds” throughout. The “rate of increase in mean fluorescence intensity” value in assay [4] is ≥ 20%.

B2: human-chicken chimeric antibody #3 (antibody, human IgG1, kappa, V domains shown)
VH: AVTLDESGGGLQTPGGALSLVCKASGFTFSGYDMLWVRQAPGKGLEWVAGIGSTGGGTDYGAAVKGRATISRDNGQSTVRLQLNNLRAEDTATYYCAKVAGGCNSGYCRDSPGSIDAWGHGTEVIVSA
VL: AVTQQPASVSANPGETVKITCSGGGSRNYYGWYQQKSPGSVPVTVIYYDDQRPSNIPSRFSGALSGSTSTLTITGVQADDEAVYFCGSADSNTYEGSFGAGTTLTVLT
notes: also called human-chicken chimeric monoclonal antibody #3
For the molecule B2, the “cytotoxic activity (ADCC)” value in assay [1] is ≥ 10%. In assay [5], the binding result is on record as “binds”.

B3: mouse monoclonal antibody #4 (antibody, V domains shown)
VH: GAELVRSGASVKMSCKASGYSFTDYNMYWVKQTPGQGLEWIGYIYPGNGGTNYNQKFKGKATLTADTSSSTAYMQISSLTSEDSAVYFCARDYDDGGYAMDYWGQGTTVTVSS
VL: DIQMTQSPASLSASVGETVTITCRASGNIHNYLTWYQQKQGKSPQLLVYNAKTLADGVPSRFSGSGSGTQYSLKINRLQPEDFGSYYCQHFWNIPWTFGGGTKLNSR
notes: Mouse hybridoma antibody; also called anti-CAPRIN-1 mouse monoclonal antibody #4
As to B3, in assay [1], the “cytotoxic activity (ADCC)” value is ≥ 10%. Besides, the binding result in assay [2] and in assay [6] was “binds” in each case. For the same molecule, the “rate of increase in mean fluorescence intensity” value in assay [4] was ≥ 20%.

B4: human-chicken chimeric antibody #1 (antibody, human IgG1, kappa, V domains shown)
VH: AVTLDESGGGLQMSRGGLSLVCKASGFDFSSYQMNWIRQAPGKGLEFVAAINKFGNSTGHGAAVKGRVTISRDNGQSTVRLQLNNLRAEDTAIYFCTKHAYGYCGSGTWCAAGEIDAWGHGTEVIVSS
VL: QAASTQPSSVSANPGETVEITCSGGGSYSYGWFQQKSPGSAPVTVIYYNNKRPSDIPSRFSGSKSGSTGTLTITGVQADDEAVYYCGSGDSTDTAVFGAGTTLTVLG
notes: also called human-chicken chimeric monoclonal antibody #1
With B4, the binding result in assay [2] and in assay [6] was “binds” each time.

Source of the values: patent US20140308283A1 (TORAY INDUSTRIES, published 2014).
